Test results reported in article doi:10.1101/559005.

Assays:
[1] = target: ScSth1p Ser1276Glu mutant bromodomain (S. cerevisiae) (UniProt P32597); test: ITC
[2] = target: ScSth1p bromodomain (residues 1250-1359), wild type (S. cerevisiae) (UniProt P32597); test: ITC

Row | Substance | Kd [1] [µM] | Kd [2] [µM]
1 | H3K14ac peptide | 3 | 18
2 | H4K20ac peptide | 31 | 48
3 | HsH2AK15ac peptide |  | 44
